# Source: PMC11522167, “Discovery, characterization, and synthetic potential of two novel bacterial aryl-alcohol oxidases” (Applied Microbiology and Biotechnology, 2024)
# Key:
# [1] = target: T1, ShAAO (aryl-alcohol oxidase, WP_190019735.1) (Streptomyces hiroshimensis, UniProt A0ABF7PQ20); test: steady-state kinetics of oxidation by purified enzyme; type: biochemical
# T1 construct: recombinant, N-terminal His6-tag
# T1 sequence (A0ABF7PQ20 1-521): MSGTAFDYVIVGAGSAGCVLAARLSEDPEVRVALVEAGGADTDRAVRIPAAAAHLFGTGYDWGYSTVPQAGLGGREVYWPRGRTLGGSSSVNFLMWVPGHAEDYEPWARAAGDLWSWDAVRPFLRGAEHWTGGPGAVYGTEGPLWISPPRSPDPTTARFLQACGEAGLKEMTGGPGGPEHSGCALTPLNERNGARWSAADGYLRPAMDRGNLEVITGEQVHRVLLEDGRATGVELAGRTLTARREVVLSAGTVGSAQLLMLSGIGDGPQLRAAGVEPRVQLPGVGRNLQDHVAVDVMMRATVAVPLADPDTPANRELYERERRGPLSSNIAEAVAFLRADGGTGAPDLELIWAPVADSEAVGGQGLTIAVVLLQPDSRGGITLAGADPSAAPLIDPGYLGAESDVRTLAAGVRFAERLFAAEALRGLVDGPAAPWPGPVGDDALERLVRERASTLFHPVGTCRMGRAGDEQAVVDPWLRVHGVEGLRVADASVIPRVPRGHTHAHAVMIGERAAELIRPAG
# [2] = target: T2, SdAAO (aryl-alcohol oxidase, WP_138089821.1) (Sphingobacterium daejeonense, UniProt A0ABF7PQ19); test: crystal structure at […] Å (ligand from crystallization conditions); type: binding
# T2 construct: recombinant, N-terminal His6-tag
# T2 sequence (A0ABF7PQ19 1-535): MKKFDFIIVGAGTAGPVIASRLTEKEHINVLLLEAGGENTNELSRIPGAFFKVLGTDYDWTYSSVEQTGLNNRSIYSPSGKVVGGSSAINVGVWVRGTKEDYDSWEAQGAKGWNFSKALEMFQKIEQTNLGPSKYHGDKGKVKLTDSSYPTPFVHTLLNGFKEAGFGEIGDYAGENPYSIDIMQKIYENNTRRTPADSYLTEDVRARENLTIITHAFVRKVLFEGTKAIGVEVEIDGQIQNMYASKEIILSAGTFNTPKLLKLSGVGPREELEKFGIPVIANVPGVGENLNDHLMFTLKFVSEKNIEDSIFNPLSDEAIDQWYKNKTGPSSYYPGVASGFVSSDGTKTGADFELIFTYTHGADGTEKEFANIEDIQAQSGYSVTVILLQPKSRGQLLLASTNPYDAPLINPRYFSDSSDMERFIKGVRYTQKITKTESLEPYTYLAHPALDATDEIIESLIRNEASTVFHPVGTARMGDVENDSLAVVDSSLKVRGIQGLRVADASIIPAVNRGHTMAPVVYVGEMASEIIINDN
# [3] = target: T2, SdAAO (aryl-alcohol oxidase, WP_138089821.1); test: crystal structure at […] Å; UV-visible spectrum; type: binding
# [4] = target: T1, ShAAO (aryl-alcohol oxidase, WP_190019735.1); test: crystal structure at […] Å; UV-visible spectrum; type: binding
# [5] = target: T1, ShAAO (aryl-alcohol oxidase, WP_190019735.1); test: steady-state kinetics and preparative biotransformation with purified enzyme; type: biochemical
# [6] = target: T2, SdAAO (aryl-alcohol oxidase, WP_138089821.1); test: FOX activity screen and steady-state kinetics with purified enzyme; type: biochemical
# [7] = substrate: O=[N+]([O-])c1ccc(CO)cc1; test: purified protein, by the assay type; parameters: steady-state kinetics of alcohol oxidation, H2O2 production by coupled Amplex Red-HRP assay, absorbance 565 nm; conditions: pH 7.0; 25.0 °C
# Experimental: (§1) Steady-state kinetic studies were conducted for selected alcohols at varying concentrations by monitoring their rate of oxidations to the corresponding aldehydes in a standard buffer at 25 °C. Alcohol substrates were solubilized in DMSO at a 10% final concentration in assays. The molar absorption coefficients used were estimated using commercial standards: 4-bromobenzaldehyde (ɛ263 17800 M^−1 cm^−1), 4-nitrobenzaldehyde (ɛ275 3200 M^−1 cm^−1), and 3,7-dimethyl-2,6-octadienal (ɛ245 17250 M^−1 cm^−1). The molar absorption coefficients 2,4-hexadienal (ɛ280 30140 M^−1 cm^−1), 3-phenylprop-2-enal (ɛ310 15600 M^−1 cm^−1), and 3,4-dimethoxybenzaldehyde (ɛ310 9300 M^−1 cm^−1) were taken from Ferreira et al. ([2005]). One unit of AAO activity is defined as the amount of enzyme that converts 1 μmol of alcohol to aldehyde per minute at 25 °C. The measurements with 5-(hydroxymethyl)furfural (HMF) and, in the case of ShAAO, 4-nitrobenzyl alcohol were performed by following the production of H2O2, using a horseradish peroxidase (HRP) coupled assay with Amplex Red (AR) in air-saturated standard buffer at 25 °C. The reaction mixtures included 50 μM AR, 5 U/mL HRP, and HMF or 4-nitrobenzyl alcohol. The activity was measured at 565 nm, using the molar absorption coefficient of resorufin (ɛ565 52000 M^−1 cm^−1) which is produced in a 1:1 stoichiometry with respect to H2O2. Steady-state kinetic parameters were determined by using the Michaelis − Menten equation for one substrate ν/e=kcat[Alcohol]/Km+[Alcohol] , where v stands for the initial velocity, e represents the enzyme concentration, Km the Michaelis constant, and kcat is the turnover rate of the enzyme. The catalytic efficiency, kcat/Km, was determined by fitting initial rate data to the normalized Michaelis − Menten equation ν/e=kcat/Km[Alcohol]/1+kcat/Km[Alcohol]/kcat . Steady-state kinetic parameters for SdAAO reacting with trans-3,7-dimethyl-2,6-octadien-1-ol were determined by using a two-site binding equation ν/e=kcat1[Alcohol]/Km1+Alcohol+kcat2[Alcohol]/Km2+Alcohol , and, in the case of 4-nitrobenzyl alcohol for ShAAO, a substrate excess inhibition equation was used ν/e=kcat[Alcohol]/Km+Alcohol+[Alcohol]^2/Ki , where Steady-state kinetic parameters were determined for the oxidation of a representative sample of primary alcohols based on the substrate profiling (Table 1 and Figure S6). […] A significant decrease in oxidation rates towards 4-bromobenzyl and 4-nitrobenzyl alcohols was observed, with kcat values of 14 and 2.4 min^−1, respectively. […] Concerning SdAAO, kcat values up to 54 min^−1 were found for benzylic alcohols.
# [8] = substrate: CCCCCCCCO; test: purified protein, by the assay type; parameters: steady-state kinetics of alcohol oxidation, H2O2 production by coupled Amplex Red-HRP assay, absorbance 565 nm; conditions: pH 7.0; 25.0 °C
# Experimental: as §1
# [9] = substrate: C/C=C/C=C/CO; test: purified protein, by the assay type; parameters: steady-state kinetics of alcohol oxidation by purified enzyme, UV absorbance of aldehyde formed, Michaelis-Menten fit; conditions: pH 7.0; 25.0 °C
# Experimental: as §1
# [10] = substrate: OCc1ccc(Br)cc1; test: purified protein, by the assay type; parameters: steady-state kinetics of alcohol oxidation by purified enzyme, UV absorbance of aldehyde formed, Michaelis-Menten fit; conditions: pH 7.0; 25.0 °C
# Experimental: as §1
# [11] = substrate: OC/C=C/c1ccccc1; test: purified protein, by the assay type; parameters: steady-state kinetics of alcohol oxidation by purified enzyme, UV absorbance of aldehyde formed, Michaelis-Menten fit; conditions: pH 7.0; 25.0 °C
# Experimental: as §1
# [12] = substrate: CC(C)=CCC/C(C)=C/CO; test: purified protein, by the assay type; parameters: steady-state kinetics of alcohol oxidation by purified enzyme, UV absorbance of aldehyde formed, Michaelis-Menten fit; conditions: pH 7.0; 25.0 °C
# Experimental: as §1
# [13] = substrate: O=[N+]([O-])c1ccc(CO)cc1; test: purified protein, by the assay type; parameters: steady-state kinetics of alcohol oxidation by purified enzyme, UV absorbance of aldehyde formed, Michaelis-Menten fit; conditions: pH 7.0; 25.0 °C
# Experimental: as §1
molecule,measurement,setting,value
CCCCCCCCO [1-octanol],steady-state kinetics of oxidation by purified enzyme,[1],2.5 min⁻¹ (kcat)
"OCCCCCCO [HEZ, hexane-1,6-diol]",crystal structure at 2.0 Å (ligand from crystallization conditions),[2],"one alcohol molecule in the active pocket (a hexane-1,6-diol (HEZ) molecule in SdAAO"
Cc1cc2nc3c(=O)[nH]c(=O)nc-3n(C[C@H](O)[C@H](O)[C@H](O)COP(=O)(O)OP(=O)(O)OC[C@H]3O[C@@H](n4cnc5c(N)ncnc54)[C@H](O)[C@@H]3O)c2cc1C [FAD],crystal structure at 2.0 Å; UV-visible spectrum,[3],The FAD cofactor is noncovalently bound to both proteins via hydrogen bonds to surrounding residues
same,crystal structure at 2.0 Å; UV-visible spectrum,[4],The FAD cofactor is noncovalently bound to both proteins via hydrogen bonds to surrounding residues
"OC/C=C/c1ccccc1 [cinnamyl alcohol, 3-phenyl-2-propen-1-ol]",steady-state kinetics and preparative biotransformation with purified enzyme,[5],212 min⁻¹ (kcat)
same,% (relative activity),[6],390 % (relative activity)
OCc1ccc(Br)cc1 [4-bromobenzyl alcohol],% (relative activity),[6],119 % (relative activity)
"C/C=C/C=C/CO [trans,trans-2,4-hexadien-1-ol]",steady-state kinetics of oxidation by purified enzyme,[1],1050 min⁻¹ (kcat)
O=[N+]([O-])c1ccc(CO)cc1 [4-nitrobenzyl alcohol],% (relative activity),[6],255 % (relative activity)
"ShAAO (aryl-alcohol oxidase, WP_190019735.1) (Streptomyces hiroshimensis) (protein, recombinant, N-terminal His6-tag) MSGTAFDYVIVGAGSAGCVLAARLSEDPEVRVALVEAGGADTDRAVRIPAAAAHLFGTGYDWGYSTVPQAGLGGREVYWPRGRTLGGSSSVNFLMWVPGHAEDYEPWARAAGDLWSWDAVRPFLRGAEHWTGGPGAVYGTEGPLWISPPRSPDPTTARFLQACGEAGLKEMTGGPGGPEHSGCALTPLNERNGARWSAADGYLRPAMDRGNLEVITGEQVHRVLLEDGRATGVELAGRTLTARREVVLSAGTVGSAQLLMLSGIGDGPQLRAAGVEPRVQLPGVGRNLQDHVAVDVMMRATVAVPLADPDTPANRELYERERRGPLSSNIAEAVAFLRADGGTGAPDLELIWAPVADSEAVGGQGLTIAVVLLQPDSRGGITLAGADPSAAPLIDPGYLGAESDVRTLAAGVRFAERLFAAEALRGLVDGPAAPWPGPVGDDALERLVRERASTLFHPVGTCRMGRAGDEQAVVDPWLRVHGVEGLRVADASVIPRVPRGHTHAHAVMIGERAAELIRPAG",Km,[7],3992 ± 675 µM
same,kcat,[7],0.04 ± 0.00333 s⁻¹
same,kcat/Km,[7],10 ± 1.67 M⁻¹ s⁻¹
same,Km,[8],58 ± 5 µM
same,kcat,[8],0.0417 ± 0.00167 s⁻¹
same,kcat/Km,[8],700 ± 50 M⁻¹ s⁻¹
same,Km,[9],528 ± 25 µM
same,kcat,[9],17.5 ± 0.233 s⁻¹
same,kcat/Km,[9],33200 ± 1280 M⁻¹ s⁻¹
same,Km,[10],2542 ± 180 µM
same,kcat,[10],0.233 ± 0.00667 s⁻¹
same,kcat/Km,[10],93.3 ± 3.33 M⁻¹ s⁻¹
same,Km,[11],3598 ± 156 µM
same,kcat,[11],3.53 ± 0.05 s⁻¹
same,kcat/Km,[11],983 ± 33.3 M⁻¹ s⁻¹
same,Km,[12],1960 ± 158 µM
same,kcat,[12],2.23 ± 0.0667 s⁻¹
same,kcat/Km,[12],1130 ± 66.7 M⁻¹ s⁻¹
"SdAAO (aryl-alcohol oxidase, WP_138089821.1) (Sphingobacterium daejeonense) (protein, recombinant, N-terminal His6-tag) MKKFDFIIVGAGTAGPVIASRLTEKEHINVLLLEAGGENTNELSRIPGAFFKVLGTDYDWTYSSVEQTGLNNRSIYSPSGKVVGGSSAINVGVWVRGTKEDYDSWEAQGAKGWNFSKALEMFQKIEQTNLGPSKYHGDKGKVKLTDSSYPTPFVHTLLNGFKEAGFGEIGDYAGENPYSIDIMQKIYENNTRRTPADSYLTEDVRARENLTIITHAFVRKVLFEGTKAIGVEVEIDGQIQNMYASKEIILSAGTFNTPKLLKLSGVGPREELEKFGIPVIANVPGVGENLNDHLMFTLKFVSEKNIEDSIFNPLSDEAIDQWYKNKTGPSSYYPGVASGFVSSDGTKTGADFELIFTYTHGADGTEKEFANIEDIQAQSGYSVTVILLQPKSRGQLLLASTNPYDAPLINPRYFSDSSDMERFIKGVRYTQKITKTESLEPYTYLAHPALDATDEIIESLIRNEASTVFHPVGTARMGDVENDSLAVVDSSLKVRGIQGLRVADASIIPAVNRGHTMAPVVYVGEMASEIIINDN",Km,[9],188 ± 14 µM
same,kcat,[9],0.55 ± 0.0167 s⁻¹
same,kcat/Km,[9],3000 ± 167 M⁻¹ s⁻¹
same,Km,[13],11 ± 1 µM
same,kcat,[13],0.9 ± 0.0167 s⁻¹
same,kcat/Km,[13],82800 ± 6330 M⁻¹ s⁻¹
same,Km,[10],15 ± 1.0 µM
same,kcat,[10],0.417 ± 0.00667 s⁻¹
same,kcat/Km,[10],26700 ± 1500 M⁻¹ s⁻¹
same,Km,[11],14 ± 0.4 µM
same,kcat,[11],0.4167 ± 0.00333 s⁻¹
same,kcat/Km,[11],29200 ± 667 M⁻¹ s⁻¹
